Data: patent US20250051467A1 (JIANGSU HENGRUI PHARMACEUTICALS, published 2025)

How the values were obtained:
[1] = biological target: T1, h-FAP-His (human, UniProt Q12884 26-760); assay: SPR, antibody captured by anti-human IgG Fc, h-FAP-His analyte
T1 construct: range 26-760; Bought recombinant protein with a His tag; also called human FAP-His protein; FAP recombinant protein with a His tag
Procedure: (§1) A CM5 sensor chip was used, and HBS-EP+buffer solution (10 mM HEPES, 150 mM NaCl, 3 mM EDTA, 0.05% surfactant P20) was used as the mobile phase. An anti-human IgG (Fc) antibody was made into a […] solution in a 10 mM sodium acetate buffer solution (pH 5.0) and immobilized by amino coupling. The test antibodies were diluted in HBS-EP+buffer solution and captured by the anti-human IgG (Fc) antibody on chip channels. h-FAP-His was dissolved in HBS-EP+buffer solution to prepare an analyte, and the analyte was serially diluted 2-fold. The diluted antibodies were passed through the experimental and reference channels at a flow rate of […], with 1 min of binding and 15 min of disassociation. 10 mM Glycine pH 1.5 was passed as a regeneration buffer solution for 30 s at a flow rate of […]. Data were analyzed. […] However, the binding affinities of the other anti-FAP antibodies obtained by screening at the same time in the present disclosure, such as Ab2, Ab4 and Ab5 (sequences not shown), for the antigen are lower than that of 28H1.

[2] = biological target: T2, mouse FAP on CHOK1 cells (mouse, UniProt P97321 1-761); assay: FACS, percent of marked cells overexpressing mouse FAP, anti-hIgG Alexa Fluor-647 secondary antibody
T2 construct: whole, on cells; also called cell surface mouse FAP
T2 sequence (P97321 whole entry): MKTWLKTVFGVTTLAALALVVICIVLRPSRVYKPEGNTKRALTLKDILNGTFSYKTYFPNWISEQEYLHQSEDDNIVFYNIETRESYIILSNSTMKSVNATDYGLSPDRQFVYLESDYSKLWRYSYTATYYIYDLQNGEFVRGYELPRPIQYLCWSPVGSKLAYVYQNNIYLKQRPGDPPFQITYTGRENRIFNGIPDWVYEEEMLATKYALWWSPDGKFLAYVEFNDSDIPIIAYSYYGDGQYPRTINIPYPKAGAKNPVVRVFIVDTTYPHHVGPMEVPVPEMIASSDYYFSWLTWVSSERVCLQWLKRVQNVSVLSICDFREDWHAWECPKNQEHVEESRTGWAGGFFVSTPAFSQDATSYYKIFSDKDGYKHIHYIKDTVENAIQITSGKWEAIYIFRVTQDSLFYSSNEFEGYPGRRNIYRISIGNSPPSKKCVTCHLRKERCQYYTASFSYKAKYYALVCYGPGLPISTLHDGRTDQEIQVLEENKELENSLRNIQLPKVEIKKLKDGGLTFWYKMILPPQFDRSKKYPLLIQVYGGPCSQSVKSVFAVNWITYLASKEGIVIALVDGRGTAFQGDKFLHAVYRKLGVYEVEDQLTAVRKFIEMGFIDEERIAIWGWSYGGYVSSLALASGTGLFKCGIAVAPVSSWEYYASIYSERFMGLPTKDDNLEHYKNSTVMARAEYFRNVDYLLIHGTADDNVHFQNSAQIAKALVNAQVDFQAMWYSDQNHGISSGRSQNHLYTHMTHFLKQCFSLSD
Procedure: (§2) A FACS assay was used to measure the binding properties of anti-FAP antibodies on cells. The assay comprises the following steps: A CHO cell line overexpressing human FAP was constructed and plated (1E5/well). The test antibodies were added at 100 μL/well. The highest concentration was 100 nM. A 5-fold dilution was performed, yielding 8 concentrations in total. The plate was incubated at 4° C. for 1 h. Anti-hIgG Alexa Fluor-647 was added as a secondary antibody in the ratio of 1:500. The plate was incubated at 4° C. for 30 min, and a FACS assay was performed. Antibodies that bind to FAP can mark cells. The relation between the percentage of the marked cells that over-express human FAP among all cells and the antibody concentration is shown in FIG. 1. The relation between the percentage of the marked cells that over-express mouse FAP among all cells and the antibody concentration is shown in FIG. 2.

[3] = biological target: T3, human FAP on CHO cells (human, UniProt Q12884 1-760); assay: FACS, CHO cells overexpressing human FAP
T3 construct: whole, on cells; also called CHO cell line overexpressing human FAP; CHOK1/FAP
Procedure: as §2

[4] = biological target: T1, h-FAP-His; assay: ELISA, human FAP-His coated
Procedure: A FAP recombinant protein with a His tag was directly used for coating. After the antibodies were added, a secondary antibody (an HRP-conjugated anti-human IgG antibody) and the HRP substrate TMB were added to measure the binding activity of the antibodies to the antigen. The assay comprises the following steps: A […] solution of human FAP-His protein was used to coat a 96-well microplate at 100 μL/well, and the plate was incubated overnight at 4° C. After a thorough wash, a blocking solution was added at 200 μL/well, and the plate was incubated at room temperature for 2 h. After a thorough wash, dilutions of test anti-FAP antibodies were added at 100 μL/well. The plate was incubated at room temperature for 1 h. After a thorough wash, a 1:20,000 dilution of an HRP-labeled goat anti-human IgG secondary antibody was added at 100 μL/well. The plate was incubated at room temperature for 1 h. After a thorough wash, TMB was added at 100 μL/well, and the plate was incubated in the dark for 15 min. 0.16 M sulfuric acid was added at 50 μL/well. The OD value at 450 nm was measured on a Thermo MultiSkanFc microplate reader, and the binding EC₅₀ values of the anti-FAP antibodies were calculated.

[5] = biological target: T4, human FAP protein (Acro, FAP-H5244) (human, UniProt Q12884 26-760); assay: SPR (Biacore 8K), antibody captured by anti-human IgG Fc, human FAP analyte
T4 construct: Bought protein
Procedure: The affinities of the anti-FAP/CD40 bispecific antibodies for their antigens, the human FAP protein (Acro, FAP-H5244) and the human CD40 protein (Acro, CD0-H5228), were measured by SPR (GE Healthcare; Biacore 8K). A CM5 sensor chip was used, and HBS-EP+buffer solution (10 mM HEPES, 150 mM NaCl, 3 mM EDTA, 0.05% surfactant P20) was used as the mobile phase. An anti-human IgG (Fc) antibody was immobilized by amino coupling. The test antibodies were separately diluted in HBS-EP+buffer solution as ligands and captured by the anti-human IgG (Fc) antibody on chip channels. Antigenic proteins of different species were used as analytes.

[6] = biological target: T3, human FAP on CHO cells; assay: FACS, CHOK1 cells stably expressing human FAP
Procedure: (§3) In this experiment, the binding of the anti-FAP/CD40 bispecific antibodies to stably transfected strains of CHOK1 cells that highly express human FAP, cynomolgus monkey FAP and mouse FAP was measured by FACS.

[7] = biological target: T2, mouse FAP on CHOK1 cells; assay: FACS, CHOK1 cells stably expressing mouse FAP
Procedure: as §3

[8] = biological target: T5, cynomolgus monkey FAP on CHOK1 cells (cynomolgus monkey); assay: FACS, CHOK1 cells stably expressing cynomolgus monkey FAP
T5 construct: whole, on cells
Procedure: as §3

[9] = biological target: T1, h-FAP-His; assay: SPR, h-FAP-His analyte; upper end tied to Ab15 by Table 6
Procedure: as §1

B1: Ab9 (antibody, human IgG1, kappa, L234A L235A, V domains shown)
VH: QMQLVQSGAEVKKPGASVTVSCRASGYSFADHFIHWVRQAPGQGFQWMGWINPNRGVTHHAQDFQGRVAMTRDMSTDTVYMELTSLRSDDTAVYYCARDESLTARPYYFYGFDVWGQGTLVTVSS
VL: DIQMTQSPSSVSASVGDRVTITCRASQGISSWLAWYQQKPGKAPKLLIYAASSLQSGVPSRFSGSGSGTDFTLTISSLQPEDFATYYCQQANSFPPAFGQGTKVEIKR
notes: Fully human, IgG1 / kappa; also called anti-FAP antibody Ab9
B1 was tested, and the Kd [1] was 0.306 nM, the “Ratio of KD of 28H1 to KD of test antibody” value [1] was 4.3 and the “Ratio of Kd of 28H1 to Kd of test antibody” value [1] was 3.54. For the same binder, the koff [1] was 7.19e-05 s⁻¹, the kon [1] was 235000 M⁻¹ s⁻¹ and the “EC50 (read off the curve)” value [2] was about 5 ng/mL. It also gave an EC50 [3] of 0.368 ng/mL and an EC50 [4] of 101000 ng/mL.

B2: Ab10 (antibody, human IgG1, kappa, L234A L235A, V domains shown)
VH: QVQLQQSGVEVKKPGASVTVSCRASGYSFADHFIHWVRQAPGQGFQWMGWINPNRGVTHHAQDFQGRVAMTRDMSTDTVYMELTSLRSDDTAVYYCARDASLTARPYYFYGFDVWGQGTLVTVSS
VL: DIQMTQSPSSVSASVGDRVTITCRASQGISSWLAWYQQKPGKAPKLLIYAASSLQSGVPSRFSGSGSGTDFTLTISSLQPEDFATYYCQQANSFPPAFGQGTKVEIKR
notes: Fully human, IgG1 / kappa; also called anti-FAP antibody Ab10; Ab110
With B2 the Kd [1] was 0.245 nM, the “Ratio of KD of 28H1 to KD of test antibody” value [1] was 5.3 and the “Ratio of Kd of 28H1 to Kd of test antibody” value [1] was 3.5. For the same binder, the koff [1] was 7.28e-05 s⁻¹, the kon [1] was 297000 M⁻¹ s⁻¹ and the Kd [5] was 0.34 nM. For the same binder, the koff [5] was 7.39e-05 s⁻¹, the kon [5] was 217000 M⁻¹ s⁻¹ and the “EC50 (read off the curve)” value [2] was about 2 ng/mL. The EC50 [6] was 1.41 nM, the “Emax (MFI)” value [6] was 72000 MFI and the EC50 [3] was 0.432 ng/mL. The EC50 [7] was 10.4 nM, the “Emax (MFI)” value [7] was 26400 MFI and the EC50 [8] was 7.34 nM. For the same binder, the “Emax (MFI)” value [8] was 64600 MFI and the EC50 [4] was 92000 ng/mL.

B3: Ab15 (antibody, human IgG1, kappa, L234A L235A, V domains shown)
VH: QMQLVQSGAEVKKPGASVTVSCRASGYSFADHFIHWVRQAPGQGFQWMGWINPNRGVTHHAQDFQGRVAMTRDMSTDTVYMELTSLRSDDTAVYYCARDESLTARPYYFYGFDVWGQGTLVTVSS
VL: EIVLTQSPSSVSASVGDRVTITCRASQGISSWLAWYQQKPGKAPKSLIYAASSLQSGVPSRFSGSGSGTDFTLTISSLQPEDFATYYCQQANSFPPTFGGGTKVEIKR
notes: Fully human, IgG1 / kappa; also called anti-FAP antibody Ab15
For B3, the Kd [1] was 0.215 nM, the “Ratio of KD of 28H1 to KD of test antibody” value [1] was 6.1 and the “Ratio of Kd of 28H1 to Kd of test antibody” value [1] was 2.43. The koff [1] was 0.000105 s⁻¹, the kon [1] was 488000 M⁻¹ s⁻¹ and the “EC50 (read off the curve)” value [2] was about 8 ng/mL. For the same binder, the EC50 [3] was 0.486 ng/mL, the “fold affinity over 28H1” value [9] was 3 to 6 times and the EC50 [4] was 321000 ng/mL.
